In US20110287017A1 one finds time to block rolling neutrophils on high density P-selectin data, which are given here for one substance.

This assay deals with membrane P-selectin coated in a flow chamber (low and high density) (UniProt P16109). Put plainly: cell-based or functional assay.
membrane P-selectin coated in a flow chamber (low and high density), sequence (P16109 42-830 limits assumed): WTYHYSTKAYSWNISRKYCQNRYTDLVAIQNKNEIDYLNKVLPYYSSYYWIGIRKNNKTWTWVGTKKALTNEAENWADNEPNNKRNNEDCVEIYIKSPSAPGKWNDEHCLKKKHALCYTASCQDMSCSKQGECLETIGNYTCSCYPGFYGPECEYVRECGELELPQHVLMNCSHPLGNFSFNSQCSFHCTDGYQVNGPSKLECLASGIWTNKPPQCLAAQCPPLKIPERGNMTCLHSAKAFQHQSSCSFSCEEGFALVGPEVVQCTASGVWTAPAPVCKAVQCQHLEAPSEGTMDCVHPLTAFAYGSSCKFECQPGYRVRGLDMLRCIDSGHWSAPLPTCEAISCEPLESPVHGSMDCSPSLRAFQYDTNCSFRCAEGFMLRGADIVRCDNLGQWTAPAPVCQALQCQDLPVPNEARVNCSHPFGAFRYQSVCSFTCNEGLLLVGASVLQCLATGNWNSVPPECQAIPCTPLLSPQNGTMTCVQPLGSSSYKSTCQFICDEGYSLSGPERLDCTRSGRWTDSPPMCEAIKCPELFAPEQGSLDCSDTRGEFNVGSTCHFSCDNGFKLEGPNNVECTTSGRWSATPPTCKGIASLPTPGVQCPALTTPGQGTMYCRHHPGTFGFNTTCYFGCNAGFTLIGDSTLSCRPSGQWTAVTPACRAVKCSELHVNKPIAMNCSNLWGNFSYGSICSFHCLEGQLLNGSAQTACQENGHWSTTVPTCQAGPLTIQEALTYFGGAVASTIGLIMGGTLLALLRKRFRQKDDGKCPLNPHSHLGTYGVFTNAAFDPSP

“G3 mouse monoclonal anti-P-selectin antibody”: the time to block rolling neutrophils on high density P-selectin was under 20 min.
